From patent US20120244578A1 (Amgen, published 2012) come the findings set out here.

The target in one test is T1, mouse FcRn (mouse, UniProt Q61559 22-297; P01887 21-119, limits assumed).
T1 sequence (looked up): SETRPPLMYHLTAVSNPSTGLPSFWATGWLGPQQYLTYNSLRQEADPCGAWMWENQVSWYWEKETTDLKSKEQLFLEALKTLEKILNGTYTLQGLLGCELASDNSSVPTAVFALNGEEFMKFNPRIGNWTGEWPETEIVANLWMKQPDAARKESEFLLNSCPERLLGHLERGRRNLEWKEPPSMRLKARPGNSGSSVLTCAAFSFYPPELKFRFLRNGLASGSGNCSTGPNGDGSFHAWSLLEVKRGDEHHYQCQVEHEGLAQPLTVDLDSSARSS
T1 sequence (b2m, looked up): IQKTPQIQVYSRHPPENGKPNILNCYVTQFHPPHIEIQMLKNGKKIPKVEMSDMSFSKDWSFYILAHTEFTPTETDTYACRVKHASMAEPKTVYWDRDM
The experiment in a line: BIAcore solution competition (FIG. 6). Here is the method:
(§1) BIAcore analysis of human and mouse FcRn binding to Fc mutant #1 (Fc K392D-K409D, dimer), #2 (Fc K392D-K409D-Y349T, monomeric SEC profile) and #6 (Fc K392D-K409D-Y349T, monomeric SEC profile) using a BIAcore3000 instrument. CHO cell produced huFc was immobilized on follow cell 2 (Fc2) on a CM5 chip. Fc1 was used as background control. 2 nM human FcRn were incubated with 1, 10, 100 nM of indicated Fc variants for one hour before injected to the CHO huFc surface. Reduced binding of FcRn to the immobilized CHO huFc indicates binding of FcRn to the Fc variants in solution. 2 nM mouse FcRn were incubated with 0.1, 1, 10 nM of Fc variants for one hour before injected to the CHO huFc surface.
(In SPR one partner is held on a chip, and binding of the other changes the refractive index at the surface.)

The target in the next test is T2, human FcRn (human, UniProt P55899 24-297; P61769 21-119, limits assumed).
T2 construct: also called neonatal Fc-receptor
T2 sequence (P55899 24-297 limits assumed, chain 1 of 2): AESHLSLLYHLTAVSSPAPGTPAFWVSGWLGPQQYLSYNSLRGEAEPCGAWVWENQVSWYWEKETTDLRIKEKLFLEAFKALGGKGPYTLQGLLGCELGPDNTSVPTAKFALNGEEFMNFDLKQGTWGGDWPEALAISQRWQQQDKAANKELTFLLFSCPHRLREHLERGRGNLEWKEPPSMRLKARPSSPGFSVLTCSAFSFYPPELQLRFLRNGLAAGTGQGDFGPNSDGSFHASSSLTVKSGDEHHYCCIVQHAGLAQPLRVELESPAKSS
T2 sequence (P61769 21-119 limits assumed, chain 2 of 2): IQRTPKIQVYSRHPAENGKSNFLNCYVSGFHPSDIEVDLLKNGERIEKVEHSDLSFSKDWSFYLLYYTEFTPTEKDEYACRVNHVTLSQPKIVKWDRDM
As to the kind of experiment: BIAcore solution competition (FIG. 6). Here is the method: as §1

B1: hu IgG1 Fc K392D K409D Y349T (construct 2 of Table 2) (other, human, UniProt P01857-1 114-330, looked up, name in EU numbering)
chain: APELLGGPSVFLFPPKPKDTLMISRTPEVTCVVVDVSHEDPEVKFNWYVDGVEVHNAKTKPREEQYNSTYRVVSVLTVLHQDWLNGKEYKCKVSNKALPAPIEKTISKAKGQPREPQVTTLPPSRDELTKNQVSLTCLVKGFYPSDIAVEWESNGQPENNYDTTPPVLDSDGSFFLYSDLTVDKSRWQQGNVFSCSVMHEALHNHYTQKSLSLSPGK
notes: domain: Fc; Monomer by SEC and AUC; also called Fc mutant #2; Monomer Fc
B1: the binding result in the test with mouse FcRn and with human FcRn was “binds” in each case.
